Reference: patent US20210284724A1 (I MAB BIOPHARMA US, published 2021)

T1: human CXCL13 (human, UniProt O43927 23-109)
T1 construct: also called huCXCL13; rhCXCL13
T1 sequence (looked up): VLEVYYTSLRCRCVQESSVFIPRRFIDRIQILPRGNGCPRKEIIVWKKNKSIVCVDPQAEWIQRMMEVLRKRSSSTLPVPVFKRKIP


What follows are binders tested against T1, human CXCL13 (assay: SPR Biacore, off-rate ranking of Fabs).

Binder	Kd [nM]	koff [s⁻¹]	kon [M⁻¹ s⁻¹]
71F4A3-VH2VL2 (Fab, V domains shown, Humanized Fab, human gamma 1 and kappa constant domains) VH: EVQLVQSGGGLVQPGGSLRLSCAASGIDFSRYWMSWVRQAPGKGLEWVAEINPDSSTINYAPSLKDRFTISRDNAKNSLYLQMNSLRAEDTAVYYCARQDDYEYYAMDYWGQGTTVTVSS VL: DIQMTQSPSSLSASVGDRVTITCKASQDVNTGVAWYQQKPGKAPKLLIYSASYRYTGVPSRFSGSGSGTDFTFTISSVQPEDIATYYCQQYYSTPLTFGGGTKLEIK	0.607	0.00137	2.25e+06
71F4A3-VH3VL2 (Fab, V domains shown, Humanized Fab, human gamma 1 and kappa constant domains) VH: EVQLVQSGGGLVQPGGSLRLSCAASGIDFSRYWMSWVRQAPGKGLEWVGEINPDSSTINYAPSLKDRFTISRDNAKNSLYLQMNSVRAEDTAVYYCARQDDYEYYAMDYWGQGTTVTVSS VL: DIQMTQSPSSLSASVGDRVTITCKASQDVNTGVAWYQQKPGKAPKLLIYSASYRYTGVPSRFSGSGSGTDFTFTISSVQPEDIATYYCQQYYSTPLTFGGGTKLEIK	0.557	0.00139	2.5e+06
71F4A3-VH4VL2 (Fab, V domains shown, Humanized Fab, human gamma 1 and kappa constant domains) VH: EVQLVQSGGGLVQPGGSLRLSCAASGIDFSRYWMSWVRQAPGKGLEWIGEINPDSSTINYAPSLKDRFTISRDNAKNSLYLQMNSVRAEDTAVYYCARQDDYEYYAMDYWGQGTTVTVSS VL: DIQMTQSPSSLSASVGDRVTITCKASQDVNTGVAWYQQKPGKAPKLLIYSASYRYTGVPSRFSGSGSGTDFTFTISSVQPEDIATYYCQQYYSTPLTFGGGTKLEIK	0.53	0.00136	2.57e+06
71F4A3-VH4VL1 (Fab, V domains shown, Humanized Fab, human gamma 1 and kappa constant domains) VH: EVQLVQSGGGLVQPGGSLRLSCAASGIDFSRYWMSWVRQAPGKGLEWIGEINPDSSTINYAPSLKDRFTISRDNAKNSLYLQMNSVRAEDTAVYYCARQDDYEYYAMDYWGQGTTVTVSS VL: DIQMTQSPSSLSASVGDRVTITCKASQDVNTGVAWYQQKPGKAPKLLIYSASYRYTGVPSRFSGSGSGTDFTFTISSLQPEDIATYYCQQYYSTPLTFGGGTKLEIK	0.59	0.001	1.7e+06
411A11E9-VH2VL2 (Fab, V domains shown, Humanized Fab, human gamma 1 and kappa constant domains) VH: EVQLVESGGGLVQPGGSLRLSCAASGFTFSDYYMAWVRQAPGKGLEWVASINYDGGDTYYRDSVKGRFTISRDNAKNSLYLQMNSLRAEDTAVYYCATEEDYDGSYVMDAWGQGTLVTVSS VL: DIQMTQSPSSLSASVGDRVTITCKASQNINKELTWYQQKPGKAPKRLIYNTNILQTGVPSRFSGSGSGTEFTLTISSLQPEDFATYFCLQQSSLYTFGQGTKLEIK	1.05	0.00271	2.58e+06
411A11E9-VH2VL1 (Fab, V domains shown, Humanized Fab, human gamma 1 and kappa constant domains) VH: EVQLVESGGGLVQPGGSLRLSCAASGFTFSDYYMAWVRQAPGKGLEWVASINYDGGDTYYRDSVKGRFTISRDNAKNSLYLQMNSLRAEDTAVYYCATEEDYDGSYVMDAWGQGTLVTVSS VL: DIQMTQSPSSLSASVGDRVTITCKASQNINKELTWYQQKPGKAPKRLIYNTNILQTGVPSRFSGSGSGTEFTLTISSLQPEDFATYYCLQQSSLYTFGQGTKLEIK	1.19	0.00283	2.37e+06
411A11E9-VH1VL1 (Fab, V domains shown, Humanized Fab, human gamma 1 and kappa constant domains) VH: EVQLVESGGGLVQPGGSLRLSCAASGFTFSDYYMAWVRQAPGKGLEWVASINYDGGDTYYRDSVKGRFTISRDNAKNSLYLQMNSLRAEDTAVYYCAREEDYDGSYVMDAWGQGTLVTVSS VL: DIQMTQSPSSLSASVGDRVTITCKASQNINKELTWYQQKPGKAPKRLIYNTNILQTGVPSRFSGSGSGTEFTLTISSLQPEDFATYYCLQQSSLYTFGQGTKLEIK	1.04	0.013	1.25e+07
411A11E9-VH3VL3 (Fab, V domains shown, Humanized Fab, human gamma 1 and kappa constant domains) VH: EVQLVESGGGLVQPGGSLRLSCAVSGFTFSDYYMAWVRQAPGKGLEWVASINYDGGDTYYRDSVKGRFTISRDNAKNSLYLQMNSLRAEDTAVYYCATEEDYDGSYVMDAWGQGTLVTVSS VL: DIQMTQSPSSLSASVGDRVTITCKASQNINKELTWYQQKPGKAPKRLIYNTNILQTGIPSRFSGSGSGTEFTLTISSLQPEDFATYFCLQQSSLYTFGQGTKLEIK	1.01	0.00207	2.05e+06
411A11E9-VH2VL3 (Fab, V domains shown, Humanized Fab, human gamma 1 and kappa constant domains) VH: EVQLVESGGGLVQPGGSLRLSCAASGFTFSDYYMAWVRQAPGKGLEWVASINYDGGDTYYRDSVKGRFTISRDNAKNSLYLQMNSLRAEDTAVYYCATEEDYDGSYVMDAWGQGTLVTVSS VL: DIQMTQSPSSLSASVGDRVTITCKASQNINKELTWYQQKPGKAPKRLIYNTNILQTGIPSRFSGSGSGTEFTLTISSLQPEDFATYFCLQQSSLYTFGQGTKLEIK	1.42	0.00335	2.36e+06
411A11E9-VH4VL1 (Fab, V domains shown, Humanized Fab, human gamma 1 and kappa constant domains) VH: EVQLVESGGGLVQPGGSLRLSCAVSGFTFSDYYMAWVRQAPGKGLEWVASINYDGGDTYYRDSVKGRFTVSRDNAKNSLYLQMNSLRAEDTAVYYCATEEDYDGSYVMDAWGQGALVTVSS VL: DIQMTQSPSSLSASVGDRVTITCKASQNINKELTWYQQKPGKAPKRLIYNTNILQTGVPSRFSGSGSGTEFTLTISSLQPEDFATYYCLQQSSLYTFGQGTKLEIK	1.03	0.00281	2.73e+06
411A11E9-VH3VL1 (Fab, V domains shown, Humanized Fab, human gamma 1 and kappa constant domains) VH: EVQLVESGGGLVQPGGSLRLSCAVSGFTFSDYYMAWVRQAPGKGLEWVASINYDGGDTYYRDSVKGRFTISRDNAKNSLYLQMNSLRAEDTAVYYCATEEDYDGSYVMDAWGQGTLVTVSS VL: DIQMTQSPSSLSASVGDRVTITCKASQNINKELTWYQQKPGKAPKRLIYNTNILQTGVPSRFSGSGSGTEFTLTISSLQPEDFATYYCLQQSSLYTFGQGTKLEIK	1.06	0.00242	2.29e+06
411A11E9-VH4VL3 (Fab, V domains shown, Humanized Fab, human gamma 1 and kappa constant domains) VH: EVQLVESGGGLVQPGGSLRLSCAVSGFTFSDYYMAWVRQAPGKGLEWVASINYDGGDTYYRDSVKGRFTVSRDNAKNSLYLQMNSLRAEDTAVYYCATEEDYDGSYVMDAWGQGALVTVSS VL: DIQMTQSPSSLSASVGDRVTITCKASQNINKELTWYQQKPGKAPKRLIYNTNILQTGIPSRFSGSGSGTEFTLTISSLQPEDFATYFCLQQSSLYTFGQGTKLEIK	1.24	0.00266	2.14e+06
411A11E9-VH1VL3 (Fab, V domains shown, Humanized Fab, human gamma 1 and kappa constant domains) VH: EVQLVESGGGLVQPGGSLRLSCAASGFTFSDYYMAWVRQAPGKGLEWVASINYDGGDTYYRDSVKGRFTISRDNAKNSLYLQMNSLRAEDTAVYYCAREEDYDGSYVMDAWGQGTLVTVSS VL: DIQMTQSPSSLSASVGDRVTITCKASQNINKELTWYQQKPGKAPKRLIYNTNILQTGIPSRFSGSGSGTEFTLTISSLQPEDFATYFCLQQSSLYTFGQGTKLEIK	3.37	0.00176	523000
411A11E9-VH4VL2 (Fab, V domains shown, Humanized Fab, human gamma 1 and kappa constant domains) VH: EVQLVESGGGLVQPGGSLRLSCAVSGFTFSDYYMAWVRQAPGKGLEWVASINYDGGDTYYRDSVKGRFTVSRDNAKNSLYLQMNSLRAEDTAVYYCATEEDYDGSYVMDAWGQGALVTVSS VL: DIQMTQSPSSLSASVGDRVTITCKASQNINKELTWYQQKPGKAPKRLIYNTNILQTGVPSRFSGSGSGTEFTLTISSLQPEDFATYFCLQQSSLYTFGQGTKLEIK	0.944	0.00196	2.08e+06
